Among the data in paper PMC12442068 are dissociation constant, fold against Camostat values, retold here.

The target of the assay is recombinant TMPRSS2 (UniProt O15393). Put plainly: enzyme inhibition kinetics (progress curve method); TMPRSS2 mixed with increasing SB3 (0-10 uM), fluorescent substrate Z-Gly-Gly-Arg-AMC, TBS pH 7.6, 25 °C, 300 s; Camostat mesylate as reference inhibitor.

Consider “recombinant SerpinB3 protein, wild type (from UniProt P29508 1-390) (natural protein)”, for which the dissociation constant, fold against Camostat stood at 6 times lower.
